Experimental data reported in doi:10.1101/2021.04.12.439405 (bioRxiv, 2021).

Target: T1, MukB^K1114E (E. coli, UniProt P22523 1-1486, K1114E)
T1 sequence (looked up): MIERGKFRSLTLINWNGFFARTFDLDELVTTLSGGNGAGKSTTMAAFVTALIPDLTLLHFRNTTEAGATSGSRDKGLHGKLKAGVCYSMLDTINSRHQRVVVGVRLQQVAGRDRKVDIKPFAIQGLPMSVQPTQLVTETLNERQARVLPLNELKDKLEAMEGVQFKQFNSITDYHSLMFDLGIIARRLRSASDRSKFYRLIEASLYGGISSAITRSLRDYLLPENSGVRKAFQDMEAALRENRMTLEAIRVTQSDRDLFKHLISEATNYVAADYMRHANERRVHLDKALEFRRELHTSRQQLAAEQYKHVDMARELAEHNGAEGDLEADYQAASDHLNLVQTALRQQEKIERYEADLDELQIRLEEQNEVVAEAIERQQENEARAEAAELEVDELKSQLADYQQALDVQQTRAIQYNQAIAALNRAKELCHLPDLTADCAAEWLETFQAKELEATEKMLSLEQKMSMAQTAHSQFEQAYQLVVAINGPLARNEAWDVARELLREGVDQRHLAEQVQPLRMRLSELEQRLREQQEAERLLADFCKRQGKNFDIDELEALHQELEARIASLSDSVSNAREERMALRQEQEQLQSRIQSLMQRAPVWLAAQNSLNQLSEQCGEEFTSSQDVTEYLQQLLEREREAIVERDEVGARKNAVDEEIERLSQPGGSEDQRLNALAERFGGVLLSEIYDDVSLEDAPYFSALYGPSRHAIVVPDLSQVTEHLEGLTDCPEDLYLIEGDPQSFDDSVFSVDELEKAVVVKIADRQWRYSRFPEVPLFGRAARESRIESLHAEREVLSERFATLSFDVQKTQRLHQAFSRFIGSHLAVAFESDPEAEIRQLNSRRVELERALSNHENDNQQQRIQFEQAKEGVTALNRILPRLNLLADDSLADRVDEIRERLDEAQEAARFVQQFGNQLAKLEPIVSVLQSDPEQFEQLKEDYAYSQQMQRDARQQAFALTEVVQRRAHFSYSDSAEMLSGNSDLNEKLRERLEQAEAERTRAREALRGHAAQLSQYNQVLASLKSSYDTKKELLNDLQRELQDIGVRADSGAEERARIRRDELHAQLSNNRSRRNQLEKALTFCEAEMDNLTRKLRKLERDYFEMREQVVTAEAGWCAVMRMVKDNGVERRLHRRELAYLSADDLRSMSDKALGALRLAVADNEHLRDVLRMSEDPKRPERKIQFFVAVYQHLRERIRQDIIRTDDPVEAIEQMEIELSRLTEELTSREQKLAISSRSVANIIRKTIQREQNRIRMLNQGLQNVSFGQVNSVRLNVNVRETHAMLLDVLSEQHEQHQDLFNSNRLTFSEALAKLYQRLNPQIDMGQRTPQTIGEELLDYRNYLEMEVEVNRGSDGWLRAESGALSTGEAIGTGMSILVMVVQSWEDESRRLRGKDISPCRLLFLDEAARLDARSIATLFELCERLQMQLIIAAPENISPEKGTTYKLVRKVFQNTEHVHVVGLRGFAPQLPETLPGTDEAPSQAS
Assay: native gel or EMSA

binding result: binds
B1: His-MukF (natural protein, E. coli, UniProt P60293 1-440, looked up)
chain: MSEFSQTVPELVAWARKNDFSISLPVDRLSFLLAVATLNGERLDGEMSEGELVDAFRHVSDAFEQTSETIGVRANNAINDMVRQRLLNRFTSEQAEGNAIYRLTPLGIGITDYYIRQREFSTLRLSMQLSIVAGELKRAADAAEEGGDEFHWHRNVYAPLKYSVAEIFDSIDLTQRLMDEQQQQVKDDIAQLLNKDWRAAISSCELLLSETSGTLRELQDTLEAAGDKLQANLLRIQDATMTHDDLHFVDRLVFDLQSKLDRIISWGQQSIDLWIGYDRHVHKFIRTAIDMDKNRVFAQRLRQSVQTYFDEPWALTYANADRLLDMRDEEMALRDEEVTGELPEDLEYEEFNEIREQLAAIIEEQLAVYKTRQVPLDLGLVVREYLSQYPRARHFDVARIVIDQAVRLGVAQADFTGLPAKWQPINDYGAKVQAHVIDKY
